Non-standard residues stand in square brackets, D forms with d. Aib = CC(C)(N)C(=O)O
Tested on: posterolateral spinal fusion of L4-L5
Experiment: Posterolateral spinal fusion of L4-L5 in rats: micro-CT and manual palpitation after treatment
Assay type: in vivo, rat
Conditions: for spinal fusion (micro-CT, manual palpitation): plain collagen matrix, rhBMP-2 10 μg soaked in matrix
Experimental: FIG. 6, panels A-C show three-dimensional reconstructions of micro-CT scans of a posterolateral spinal fusion of L4-L5 in a rat treated with a plain collagen matrix and a compound of SEQ ID NO: 2 for eight weeks. In some embodiments, SEQ ID NO: 2 was dosed (e.g., in rodents) at 33 nmol/kg twice a week. […] In some embodiments, the collagen matrix was applied during surgery. […] In some embodiments, phosphate-buffered saline was dosed at a 1× concentration twice a week in the same volume as SEQ ID NO: 2. […] Scores were assigned 0-5 on osteointegration, density, and bridging of both bilateral spinal fusions in microCT scans of the rats as determined by an individual who was blinded to the treatment and reviewed random samples. The total score is the sum of all five scores combined. […] The density of the scan was assigned based on a standard curve generated by a phantom hydroxyapatite standard set. A bilateral posterolateral lumbar spinal fusion was performed under aseptic conditions using isoflurane as an anesthetic. The skin surrounding the L2-L6 region on the back was shaved and disinfected using a Betadine solution followed by an alcohol pad. A 3-cm incision extending from the L3 to L6 vertebrae was made in the skin in this prepared area. The muscle on the vertebral body between the spinous process and the transverses process was bluntly dissected away from the vertebral body to expose the transverses processes. Using a low-speed burr, the L4 and L5 transverse processes cortical bone was removed in addition to the facia joint between the two vertebrae. The burr removed the surface layer of the bone. This process is known as decortication and was done to allow for direct regeneration of bone tissue. Following decortication, a drug-soaked collagen sponge was placed on each side of the vertebrae. A 5×7.5-mm collagen sponge was soaked to saturation in the drugs for 10 minutes. The collagen sponge (RCM6 membranes from ACE surgical supplies) served as a scaffold to aid in the fusion of the vertebrae. Mineralized collagen scaffolds (supplied by Houston Methodist, Houston, TX) and collagen scaffolds wrapped around anorganic bone granules (InterOss bone granules; SigmaGraft Inc. Biomaterials, Fullerton, CA) were also separately used. The inter-muscle was closed with resorbable sutures. The exterior wound was then sutured closed using a nylon suture. Subcutaneous buprenorphine (0.05-0.1 mg/kg) was then administered directly after the operation and was repeated every 12 hours for the next 3 days post-surgery. Fracture healing was assessed using micro-CT (Scanco Medical Ag or PerkinElmer). The anesthetized animal was scanned for two minutes with the PerkinElmer Quantum FX micro-CT at high resolution with a voxel size of 10 μM at 90 kV and 88 uA and an Al 0.5 mm+Cu 0.06 mm filter. The scanning detector rate was 117 fps. The images were analyzed in ImageJ using the BoneJ package. Morphometric parameters were quantified in an ROI that included just the fracture callus. Trabecular thickness (Tb.Th.), trabecular spacing (Tb. Sp.), total volume (TV), and volume of calcified callus (BV) were calculated. Statistical analysis was performed using a one-way analysis of variance (ANOVA) and a Dunnett's post-hoc analysis with significance reported at the P value of 0.05. All animal experiments were performed in accordance with protocols approved by Purdue University's Institutional Animal Care and Use Committee (IACUC). Rats were scanned in AMI after being anesthetized with isoflurane.

B1: H-AVSEHQLLHDKGKSIQDLRRRELLEKLLxKLHTAEIRATSEVSPNSeeeeeeeeeeeeeeeeeeee (peptide)
chain: H-AVSEHQLLHDKGKSIQDLRRRELLEKLL[Aib]KLHTAEIRATSEVSPNS[dE][dE][dE][dE][dE][dE][dE][dE][dE][dE][dE][dE][dE][dE][dE][dE][dE][dE][dE][dE]
notes: PTHrP fragment conjugated at its C-terminus to a linear peptide of 20 D-glutamic acid residues; x=Aib, e=D-glutamic acid
- change of bone graft granules on micro-CT (bone graft matrix, eight weeks): the granules resorb
- spinal fusion (manual palpitation) (bone graft matrix, eight weeks, SEQ ID NO: 2 33 nmol/kg twice a week, rhBMP-2 10 μg): no fusion
- spinal fusion (micro-CT) (mineralized collagen scaffold, eight weeks of treatment): none of the treatments had fused
- mineralization of the scaffolds (micro-CT) (mineralized collagen scaffold, five weeks of treatment, preliminary results): increased the mineralization of the scaffolds more than BMP2 or saline
- spinal fusion (micro-CT, manual palpitation) (eight weeks, SEQ ID NO: 2 33 nmol/kg twice a week): Fusion was confirmed
- spinal fusion (micro-CT, manual palpitation) (eight weeks, SEQ ID NO: 2 33 nmol/kg twice a week, listed as SEQ ID NO.: 2): fused

From patent US20230390363A1, “Compounds, Compositions and Methods of Use to Treat Spinal Fusions” (PURDUE RESEARCH FOUNDATION, priority 2020, published 2023)
